Source: US20090068195A1

Experiments:
[1] = molecular target: native human IL-13 (human) (UniProt P35225); experiment: cell-based or functional assay
[2] = molecular target: non-human primate (cynomolgus monkey) IL-13 (cynomolgus monkey); experiment: cell-based or functional assay
non-human primate (cynomolgus monkey) IL-13 (cynomolgus monkey), sequence (Q5I6E4 other isoform, or with tags, fused parts or gaps limits assumed): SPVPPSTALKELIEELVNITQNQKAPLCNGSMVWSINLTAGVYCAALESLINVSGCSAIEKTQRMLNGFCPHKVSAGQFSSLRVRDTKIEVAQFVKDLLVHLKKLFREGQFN

native human IL-13 (human), sequence (P35225 other isoform, or with tags, fused parts or gaps limits assumed): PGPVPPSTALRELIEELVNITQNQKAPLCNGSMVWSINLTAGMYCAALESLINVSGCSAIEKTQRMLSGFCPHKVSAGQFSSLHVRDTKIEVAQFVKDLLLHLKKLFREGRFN

B1: antibody with the murine heavy chain of MJ2-7 and a humanized light chain (antibody, part only; not given: humanized light chain, V domains shown, part only)
VH: EVQLQQSGAELVKPGASVKLSCTGSGFNIKDTYIHWVKQRPEQGLEWIGRIDPANDNIKYDPKFQGKATITADTSSNTAYLQLNSLTSEDTAVYYCARSEENWYDFFDYWGQGTTLTVSS
- STAT6 phosphorylation, IC50 [1]: 0.554 nM
- CD23 expression, IC50 [2]: 0.308 nM
